Substitutions are numbered along the chain they refer to. Names may count otherwise.
B1: CD3B124 (antibody, V domains shown)
VH: EVKLLESGGGLVQPKGSLKLSCAASGFTFNTYAMNWVRQAPGKGLEWVARIRSKYNNYATYYADSVKDRFTISRDDSQSILYLQMNNLKTEDTAMYYCVRHGNFGNSYVSWFAYWGQGTLVTVSA
VL: QAVVTQESALTTSPGETVTLTCRSSTGAVTTSNYANWVQEKPDHLFTGLIGGTNKRAPGVPARFSGSLIGDKAALTITGAQTEDEAIYFCALWYSNLWVFGGGTKLTVL
notes: also called chimeric SP34-derived antibody
B2: CD3B150 (antibody, V domains shown)
VH: EVQLLESGGGLVQPGGSLRLSCAASGFTFNTYAMNWVRQAPGKGLEWVARIRSKYNNYATYYADSVKGRFTISRDNSKNTLYLQMNSLRAEDTAVYYCAKHGNFGNSYVSWFAYWGQGTLVTVSS
VL: QTVVTQEPSLTVSPGGTVTLTCRSSTGAVTTSNYANWVQQKPGQAPRGLIGGTNKRAPGTPARFSGSLLGGKAALTLSGVQPEDEAEYYCALWYSNLWVFGGGTKLTVL
notes: also called CD3H142/CD3L66; CD3B50
B3: CD3B147 (antibody, V domains shown)
VH: B2 VH
VL: B2 VL with T2A, V80A
notes: also called CD3H142/CD3L63
B4: CD3B143 (antibody, V domains shown)
VH: B2 VH with L5V, D64A, N76D, T80S, R89K, A90T, K100R
VL: B2 VL with T2A, V80A
notes: also called CD3H141/CD3L63
B5: CD3B146 (antibody, V domains shown)
VH: B2 VH with L5V, D64A, N76D, T80S, R89K, A90T, K100R
VL: B2 VL
notes: also called CD3H141/CD3L66
B6: CD3B158 (antibody, V domains shown)
VH: EVQLVESGGGLVQPGGSLKLSCAASGFTFNTYAMNWVRQASGKGLEWVGRIRSKYNGYATYYAASVKGRFTISRDDSKNTAYLQMNSLKTEDTAVYYCTRHGNFGNSYVSWFAYWGQGTLVTVSS
VL: B2 VL
notes: also called CD3H144/CD3L66
B7: CD3B156 (antibody, V domains shown)
VH: B6 VH
VL: QSVLTQPPSVSAAPGQKVTISCRSSTGAVTTSNYANWVQQLPGTAPKGLIGGTNKRAPGIPDRFSGSKSGTSATLGITGLQTGDEADYYCALWYSNLWVFGGGTKLTVL
notes: also called CD3H144/CD3L64
B8: CD3B155 (antibody, V domains shown)
VH: B6 VH
VL: B2 VL with T2A, V80A
notes: also called CD3H144/CD3L63
B9: CD3B154 (antibody, V domains shown)
VH: B2 VH with A99V
VL: B2 VL
notes: also called CD3H143/CD3L66
B10: CD3B151 (antibody, V domains shown)
VH: B2 VH with A99V
VL: B2 VL with T2A, V80A
notes: also called CD3H143/CD3L63
B11: PS3B71 (bispecific antibody, human IgG4 S228P, kappa, lambda, F234A L235A)
heavy 1: not shown
light 1: not shown
heavy 2: EVQLVESGGGLVQPGGSLRLSCAASGFTFNTYAMNWVRQAPGKGLEWVARIRSKYNNYATYYAASVKGRFTISRDDSKNSLYLQMNSLKTEDTAVYYCARHGNFGNSYVSWFAYWGQGTLVTVSSASTKGPSVFPLAPCSRSTSESTAALGCLVKDYFPEPVTVSWNSGALTSGVHTFPAVLQSSGLYSLSSVVTVPSSSLGTKTYTCNVDHKPSNTKVDKRVESKYGPPCPPCPAPEAAGGPSVFLFPPKPKDTLMISRTPEVTCVVVDVSQEDPEVQFNWYVDGVEVHNAKTKPREEQFNSTYRVVSVLTVLHQDWLNGKEYKCKVSNKGLPSSIEKTISKAKGQPREPQVYTLPPSQEEMTKNQVSLTCLVKGFYPSDIAVEWESNGQPENNYKTTPPVLDSDGSFLLYSKLTVDKSRWQEGNVFSCSVMHEALHNHYTQKSLSLSLGK
light 2: QTVVTQEPSLTVSPGGTVTLTCRSSTGAVTTSNYANWVQQKPGQAPRGLIGGTNKRAPGTPARFSGSLLGGKAALTLSGVQPEDEAEYYCALWYSNLWVFGGGTKLTVLGQPKAAPSVTLFPPSSEELQANKATLVCLISDFYPGAVTVAWKADSSPVKAGVETTTPSKQSNNKYAASSYLSLTPEQWKSHRSYSCQVTHEGSTVEKTVAPTECS
notes: IgG4 PAA; PSMA arm first, then CD3 arm (F405L, R409K); also called PSMB359 x CD3B219
B12: PS3B75 (bispecific antibody, human IgG4 S228P, kappa, lambda, F234A L235A)
heavy 1: not shown
light 1: not shown
heavy 2: B11 heavy 2
light 2: B11 light 2
notes: IgG4 PAA; PSMA arm first, then CD3 arm (F405L, R409K); also called PSMB363 x CD3B219
B13: PS3B72 (bispecific antibody, human IgG4 S228P, kappa, lambda, F234A L235A)
heavy 1: not shown
light 1: not shown
heavy 2: B11 heavy 2
light 2: B11 light 2
notes: IgG4 PAA; PSMA arm first, then CD3 arm (F405L, R409K); also called PSMB360 x CD3B219
B14: PS3B74 (bispecific antibody, human IgG4 S228P, kappa, lambda, F234A L235A)
heavy 1: not shown
light 1: not shown
heavy 2: B11 heavy 2
light 2: B11 light 2
notes: IgG4 PAA; PSMA arm first, then CD3 arm (F405L, R409K); also called PSMB362 x CD3B219
B15: PS3B73 (bispecific antibody, human IgG4 S228P, kappa, lambda, F234A L235A)
heavy 1: not shown
light 1: not shown
heavy 2: B11 heavy 2
light 2: B11 light 2
notes: IgG4 PAA; PSMA arm first, then CD3 arm (F405L, R409K); also called PSMB361 x CD3B219
B16: CD3B148 (antibody, V domains shown)
VH: B2 VH
VL: B7 VL
notes: also called CD3H142/CD3L64

target: T1, cynomolgus CD3ε on primary cynomolgus CD4+ T cells (cynomolgus monkey, UniProt Q95LI5 22-198); test: flow cytometry on primary cynomolgus CD4+ T cells (CD3e), anti-human IgG (H+L) Alexa Fluor 647
T1 construct: whole, on cells
T1 sequence (Q95LI5 22-198): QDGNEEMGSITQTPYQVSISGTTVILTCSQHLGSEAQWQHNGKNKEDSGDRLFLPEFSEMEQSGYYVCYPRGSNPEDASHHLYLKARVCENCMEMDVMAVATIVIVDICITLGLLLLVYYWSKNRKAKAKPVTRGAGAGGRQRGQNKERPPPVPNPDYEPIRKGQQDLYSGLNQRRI
Method: (§1) The resulting panel of anti-CD3 antibodies was tested for binding against cell-surface CD3ε on primary human T cells. To do this, binding of antibodies from expression supernatants was visualized using a polyclonal anti-human secondary antibody and analyzed by flow cytometry. Briefly, binding of anti-CD3 antibodies to cell-surface CD3E was assessed by flow cytometry using primary Human T lymphocytes purified by negative selection (Biological Specialty, Colmar, USA). Expression supernatants or purified antibodies were normalized to 10 μg/ml in media or FACS buffer (BD BioSciences), respectively. 2×10⁵ cells were aliquoted into wells of a 96 well round-bottomed plate (CoStar) for labeling. Antibodies in expression supernatant were added to cells and incubated for 45 min at 4° C. Following centrifugation at 1300 rpm for 3 min and removal of supernatant, 50 μL of anti-human IgG (H+L) Alexa Fluor 647 secondary antibody (Life technologies Inc.) was incubated with the cells at a final concentration of 10 μg/mL for 30 min at 4° C. away from direct light. Following washing and resuspension in 30 μL FACs buffer (BD BioSciences). Sample collection was performed on an Intellicyt HTFC system using ForeCyt software. Viable single cells were gated prior to analysis of binding using the green or red fixable live/dead dyes (Life Technologies Inc.) and forward/side scatter area and height parameters, respectively. Graphs were generated in GraphPad Prism version 5 using mean fluorescence intensity values.
Binding analysis of the anti-CD3 hits to primary cynomolgus CD4⁺ T cells was then tested in order to assess the retention of cross-reactivity. Purified CD4⁺ T cells from the peripheral blood of cynomolgus monkeys (Zen Bio, Triangle Research Park, USA were used). Assay protocols were similar to those described above.

| Binder | binding result |
| --- | --- |
| B1 | binds |
| B2 | binds |
| B3 | binds |
| B4 | binds |
| B5 | binds |
| B6 | binds |
| B7 | binds |
| B8 | binds |
| B9 | binds |
| B10 | binds |

target: T2, human PSMA (prostate specific membrane antigen), full length (human, UniProt Q04609 1-750); test: flow cytometry cell binding assay, bispecific antibody titrated on LNCaP cells (human PSMA)
T2 construct: On LNCaP or C4-2B cells (endogenous) or transduced HEK293F cells; also called FOLH1_HUMAN; hPSMA
T2 sequence (Q04609 whole entry): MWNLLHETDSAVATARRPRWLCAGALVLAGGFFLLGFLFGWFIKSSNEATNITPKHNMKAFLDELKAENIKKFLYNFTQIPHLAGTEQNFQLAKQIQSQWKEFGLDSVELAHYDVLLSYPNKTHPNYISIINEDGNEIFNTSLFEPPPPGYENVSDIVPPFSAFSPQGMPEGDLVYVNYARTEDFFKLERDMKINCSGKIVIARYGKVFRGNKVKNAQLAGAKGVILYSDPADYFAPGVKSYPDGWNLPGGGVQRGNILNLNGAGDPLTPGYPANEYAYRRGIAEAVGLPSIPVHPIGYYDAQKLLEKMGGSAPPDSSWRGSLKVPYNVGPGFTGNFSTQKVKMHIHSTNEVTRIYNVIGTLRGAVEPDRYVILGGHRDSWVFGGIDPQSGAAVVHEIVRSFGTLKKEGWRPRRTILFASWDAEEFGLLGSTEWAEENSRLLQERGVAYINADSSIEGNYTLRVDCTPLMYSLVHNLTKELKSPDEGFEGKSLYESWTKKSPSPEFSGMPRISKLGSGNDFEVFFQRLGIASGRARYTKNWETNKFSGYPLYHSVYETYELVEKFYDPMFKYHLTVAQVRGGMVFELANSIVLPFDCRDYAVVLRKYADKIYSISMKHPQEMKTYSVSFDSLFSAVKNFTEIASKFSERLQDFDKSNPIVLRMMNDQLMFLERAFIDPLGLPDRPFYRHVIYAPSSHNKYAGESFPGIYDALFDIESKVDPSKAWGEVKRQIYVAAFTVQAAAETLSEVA
Method: PSMA×CD3 bispecific antibodies were tested for binding to PSMA positive cell lines LNCAP, human PSMA-HEK, Chimpanzee-PSMA-HEK and Cynomolgous monkey PSMA-HEK. To assess the binding capabilities of the PSMA bispecific antibodies, the cell-binding assay was utilized (described previously). Briefly, PSMA expressing tumor cells are bound by bispecific antibodies at known concentrations and the bound antibody is detected by an anti-human kappa light chain PE conjugated detection reagent (Invitrogen). The Mean Fluorescents Intensity (MFI) is the measure of bound bispecific antibody. The MFI is converted to a relative EC₅₀. EC₅₀ is a commonly used dose-response curve, where the half maximal effective concentration or the EC₅₀ point is defined as the inflection point of the curve. EC₅₀ s were determined by measuring cell bound bispecific and known concentrations. […] The dose response curves were then diluted down to that of background or no bispecific binding. The inflection point of this curve reflects the EC₅₀ point. The calculated EC₅₀ is determined by taking the ug/ml amount of bispecific antibody at the EC₅₀ point and converting it to a molarity value based on the MW of the bispecific antibody. Bispecific antibodies were normalized for protein concentration and then incubated with the same number of cells expressing either human or cyno PSMA. The MFI at each concentration was collected by flow cytometry and plotted as a function of concentration. Data was transformed via log 10 and then plotted. Nonlinear regression of binding curves was done to determine EC₅₀ s. These relative values were used for ranking PSMA binding to target cells.
PSMA×CD3 bispecific antibodies were tested for binding to PSMA positive cell line, LNCAP, to PSMA negative cell line, PC3. To assess the binding capabilities of the PSMA bispecific antibodies, the cell-binding assay was utilized (described previously). Bispecific antibodies were normalized for protein concentration and then incubated with the same number of cells expressing either human or cyno PSMA. The MFI at each concentration was collected by flow cytometry and plotted as a function of concentration.

| Binder | binding result |
| --- | --- |
| B11 | binds |
| B12 | binds |
| B13 | binds |
| B14 | binds |
| B15 | binds |

target: T3, human CD3ε on primary human T cells (human, UniProt P07766 23-207); test: flow cytometry on primary human T cells (cell-surface CD3e), anti-human IgG (H+L) Alexa Fluor 647; one intermediate concentration of the titration is shown
T3 construct: whole, on cells; Part of the TCR-CD3 complex on the cells; also called cell-surface CD3ε; CD3E
T3 sequence (P07766 23-207): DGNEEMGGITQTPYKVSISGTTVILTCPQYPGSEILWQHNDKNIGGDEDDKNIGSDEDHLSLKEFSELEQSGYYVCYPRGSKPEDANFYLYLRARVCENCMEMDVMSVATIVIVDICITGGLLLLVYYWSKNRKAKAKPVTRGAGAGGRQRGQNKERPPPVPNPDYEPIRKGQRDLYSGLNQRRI
Method: as §1

| Binder | binding result |
| --- | --- |
| B2 | binds |
| B16 | binds |
| B3 | binds |
| B4 | binds |
| B5 | binds |
| B6 | binds |
| B7 | binds |
| B8 | binds |
| B9 | binds |
| B10 | binds |

Source: patent publication US20200024360A1 (Janssen / Centocor, published 2020)
